# Source: article PMC3247843
# Target: soluble human FcRn (human) (UniProt P55899)
# Assay: SPR
KD relative to WT IgG1 (% higher than the KD of WT IgG1),Substance,KD relative to WT IgG1 (fold of the KD of WT IgG1)
50,recombinant human IgG1–H435R (antibody),–
–,recombinant human IgG3 (anti-Streptococcus pneumoniae serotype 6) (antibody),2
